No end group written: not given here.
Key:
Format in all cases: cell-based
LGR8 (RXFP2) [1] = molecular target: T1, LGR8 (RXFP2) (Homo sapiens, UniProt Q8WXD0); test: pCRE-β-gal reporter assay in Forskolin-treated CHO-K1 cells transiently transfected with LGR8; parameters: expressed in transfected cells; host or cells: CHO-K1 (transient); conditions: 5 uM Forskolin, FIG. 8A-B
Description: The ability of P74C13V (P74) (SEQ ID NO: 10) and P59C13V (P59) and P59C13V-Amide (P59-Amide) (SEQ ID NO: 6 and 5 respectively) to activate LGR7 (RXFP1) and LGR8 (RXFP2) was further tested by testing the ability of these peptides to influence cAMP activity induced by 5 μM Forskolin in CHO-K1 cells transiently transfected with LGR7/pCRE-β-gal or LGR8/pCRE-β-gal as compared to H2 relaxin and INSL3 respectively.
LGR8 transfected CHO-K1 cells were treated with 5 uM of Forskolin to stimulate cAMP. The cells were then challenged with increasing doses of INSL3 (as positive control), P74C13V (P74) (SEQ ID NO: 10), P59C13V with (P59-Amide) and without (P59) amide (SEQ ID NO: 5 and 6, respectively) and P59S-Amide (P59-S) (SEQ ID NO: 1). […] The results are presented as a percentage of Forskolin activity at various concentrations of the peptide (logarithmic scale). Each point represents three unrelated repeats for each experiment.

LGR8 (RXFP2) [2] = molecular target: T1, LGR8 (RXFP2); test: pCRE-β-gal reporter assay in HEK-293T cells expressing LGR8; parameters: expressed in transfected cells; conditions: LGR8/pCRE-β-gal HEK-293T; for CRE activation pattern: 0.01 nM-1 μM, FIG. 6A-B
Description: In order to further test the activity of P59C13V (P59) (SEQ ID NO: 6), P59S-Amide (P59S) (SEQ ID NO: 1), P59C13V-Amide (P59 Amide) (SEQ ID NO: 5) and P74C13V (P74) (SEQ ID NO: 10), the following assay was performed. The assay was done to assess the ability of P59C13V (P59) (SEQ ID NO: 6), P59S-Amide (P59S) (SEQ ID NO: 1), P59C13V-Amide (P59Amide) (SEQ ID NO: 5) and P74C13V (P74) (SEQ ID NO: 10) peptides to replace H2 Relaxin or INSL3 activity in stable HEK-293T cell lines expressing the LGR7 (RXFP1) or the LGR8 (RXFP2) receptors, respectively, by assessment of the ability of these peptides to increase cAMP activity in cell lines expressing LGR7 (RXFP1) or LGR8 (RXFP2) respectively, together with pCRE-β-gal. The pCRE-β-gal assay is a standard and well established assay at the Howard Florey Institute (Melbourne, Australia) (Halls M L, Bathgate R A, Summers R J.—Comparison of signaling pathways activated by the relaxin family peptide receptors, RXFP1 and RXFP2, using reporter genes. J Pharmacol Exp Ther. 2007 January; 320(1):281-90.)
The ability of P59C13V (P59) (SEQ ID NO: 6), P59S-Amide (P59S) (SEQ ID NO: 1), P59C13V-Amide (P59Amide) (SEQ ID NO: 5) and P74C13V (P74) (SEQ ID NO: 10) to influence cAMP activity in HEK-293T LGR7/pCRE-β-gal stable or LGR8/pCRE-β-gal transfected cells was tested in parallel to H2 relaxin and INSL3 respectively, according to the protocol described in Halls M L, et al., J Pharmacol Exp Ther. 2007 January; 320(1):281-90.
The experiment was repeated at least three times. The following concentrations of each peptide were tested: 0.01 nM, 0.1 nM, 1 nM, 10 nM, 100 nM, 1 μM.
The results are presented as a percentage of INSL3 activity in LGR8/pCRE-β-gal transfected HEK-293T cells as a function of the concentration (Represented in Log [M]).

LGR8 (RXFP2) [3] = molecular target: T1, LGR8 (RXFP2); test: cAMP accumulation (Hit Hunter cAMP kit) in CHO-K1 cells transiently transfected with LGR8; parameters: expressed in transfected cells; host or cells: CHO-K1 (transient); conditions: for cAMP inhibition (Gi) effect: 1 uM, LGR8 CHO-K1 cells pre-treated with 10 uM Forskolin, FIG. 1; for change in cAMP, dose response, higher concentrations: concentrations higher than 100 nM (up to 10 uM); for change in cAMP, dose response, higher concentrations / change in cAMP, dose response, lower concentrations: 20 uM Forskolin, FIG. 2; for change in cAMP, dose response, lower concentrations: concentrations lower than 100 nM
Description: The ability of Peptides to affect cAMP concentration was examined in CHO-K1 cells transiently transfected with LGR7 (RXFP1) or LGR8 (RXFP2). The experiment measured cAMP concentration in response to the addition of the peptides.
LGR7 (RXFP1) or LGR8 (RXFP2) were transiently transfected into CHO-K1 cells as follows: Cells (12 million) were plated into T75 flasks on the day preceding transfection. Cells were transfected with a GPCR DNA and Gα16 using a lipid technique according to the manufacturer's recommendation. Cells were transfected for 5 hours, then re-plated into 96-well dishes (60,000 cells per well) and grown overnight. Transfected cells were plated into 24 wells of a 96-well plate. Cells were pre-treated with 0.5 mM IBMX (stimulation buffer) for 10 min at 37° C., then stimulated with either a positive control (Relaxin 2) or a candidate peptide (for Gs functional examination), followed by stimulation or a preincubation with 10 μM forskolin (for Gi functional examination). Following a 20 minutes stimulation by incubation with 1 μM of either positive control or the tested peptides, either with or without forskolin, intracellular cAMP was assayed using the Hit Hunter cAMP kit (DiscoveRx Corporation) according to the manufacturer's recommended protocol. Data was converted to nmol of cAMP by running a standard cAMP curve.
Relaxin was used as a positive control. cAMP level was elevated by pre-treatment with forskolin.
The transfected CHO-K1 cells were treated with 10 uM of Forskolin (Applied cell sciences (ACS)) for 10 minutes and then challenged with 1 uM of H2 Relaxin (ACS) (as a positive control), 1 uM of Peptide P59C13V (P59) (SEQ ID NO: 6), and Peptide P74C13V (P74) (SEQ ID NO: 10).
A dose response effect of P59C13V (P59) and P74C13V (P74) on CHO-K1 cells transiently transfected with LGR8 (RXFP2) was further examined (Method as above). CHO-K1 cells transiently transfected with LGR8 (RXFP2) were treated with 20 uM of Forskolin for 10 minutes and then challenged with either INSL3 (as a positive control), P59C13V (SEQ ID NO: 6) or P74C13V (P74) (SEQ ID NO: 10) at increasing concentrations from 1 nM to 10 uM.

T1 sequence (Q8WXD0 whole entry): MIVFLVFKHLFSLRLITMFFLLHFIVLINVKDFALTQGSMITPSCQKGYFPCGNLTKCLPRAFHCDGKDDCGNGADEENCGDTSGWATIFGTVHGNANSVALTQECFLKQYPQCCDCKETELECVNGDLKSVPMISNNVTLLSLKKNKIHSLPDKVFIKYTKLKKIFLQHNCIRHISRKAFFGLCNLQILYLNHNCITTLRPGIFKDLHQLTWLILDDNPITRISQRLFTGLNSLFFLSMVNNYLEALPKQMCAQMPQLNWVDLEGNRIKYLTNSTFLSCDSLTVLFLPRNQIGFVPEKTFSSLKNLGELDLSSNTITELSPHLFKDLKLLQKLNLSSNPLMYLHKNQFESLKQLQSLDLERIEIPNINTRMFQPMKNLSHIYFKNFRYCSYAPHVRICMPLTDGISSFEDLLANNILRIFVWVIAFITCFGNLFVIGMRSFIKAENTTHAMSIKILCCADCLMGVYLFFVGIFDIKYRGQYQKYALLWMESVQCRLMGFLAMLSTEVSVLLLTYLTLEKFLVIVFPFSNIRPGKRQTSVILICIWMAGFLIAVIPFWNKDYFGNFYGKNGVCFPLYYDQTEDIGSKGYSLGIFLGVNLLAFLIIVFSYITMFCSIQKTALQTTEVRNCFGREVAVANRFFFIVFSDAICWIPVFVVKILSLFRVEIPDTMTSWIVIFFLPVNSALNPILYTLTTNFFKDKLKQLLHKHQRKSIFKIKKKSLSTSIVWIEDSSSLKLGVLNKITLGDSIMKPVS

Substance | CRE activation pattern relative to Forskolin (LGR8 (RXFP2) [1]) | CRE activation pattern (LGR8 (RXFP2) [2]) | cAMP inhibition (Gi) effect (LGR8 (RXFP2) [3]) | change in cAMP, dose response, higher concentrations (LGR8 (RXFP2) [3]) | change in cAMP, dose response, lower concentrations (LGR8 (RXFP2) [3]) | CRE activation relative to INSL3 activity (LGR8 (RXFP2) [2]; FIG. 6B)
GQKGQVGPPGAAVRRAYAAFSV-Amide (GQKGQVGPPGAAVRRAYAAFSV-NH2) [P59C13V-Amide] | slight activation pattern | very weak effect | – | – | – | –
GQKGQVGPPGAAVRRAYAAFSV [Peptide P59C13V] | dual activation pattern effect | – | clear cAMP inhibition (Gi) effect | slight increase (Gs effect) | slight decrease in cAMP | ~25 % of INSL3
AYAAFSV-Amide (AYAAFSV-NH2) [Peptide P59-S-Amide] | – | less pronounced | – | – | – | –

Second part, the substance after the results:

CRE activation pattern relative to Forskolin (LGR8 (RXFP2) [1]) | CRE activation pattern (LGR8 (RXFP2) [2]) | cAMP inhibition (Gi) effect (LGR8 (RXFP2) [3]) | change in cAMP, dose response, higher concentrations (LGR8 (RXFP2) [3]) | change in cAMP, dose response, lower concentrations (LGR8 (RXFP2) [3]) | CRE activation relative to INSL3 activity (LGR8 (RXFP2) [2]; FIG. 6B) | Substance
bell-shaped activation pattern | bell shaped response | clear cAMP inhibition (Gi) effect | no effect | slight increase in cAMP | – | GQKGQVGPPGAAVRRAYAAFSVGRRAYAAFSV-OH [Peptide P74C13V]
– | – | affected only the LGR7 (RXFP1) receptor | – | – | – | H2 Relaxin: H2 Relaxin (ACS), positive control, known ligand of LGR7 (RXFP1) [reference compound]
